Experiment [1] deals with T1, IL-7 receptor ectodomain (rhIL-7Rα) (human, UniProt P16871 21-239).
T1 chain: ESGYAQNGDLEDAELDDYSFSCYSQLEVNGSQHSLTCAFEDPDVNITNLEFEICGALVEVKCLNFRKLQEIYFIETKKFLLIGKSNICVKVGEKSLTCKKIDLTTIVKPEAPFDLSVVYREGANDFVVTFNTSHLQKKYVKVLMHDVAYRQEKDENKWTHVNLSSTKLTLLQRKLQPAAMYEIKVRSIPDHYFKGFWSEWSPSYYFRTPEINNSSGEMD
Nature of the experiment: SPR.

Experiment [2] addresses T2, N-terminal fragment of MMP-9-cleaved human IL-7 produced in HEK-293 cells (IL-7*) (human, UniProt P13232 26-128, N-linked oligosaccharides (sites shown in Figure 1D)).
T2 construct: Interleukin-7, human, N-terminal fragment up to Ala128 (MMP-9 cleavage between Ala128 and Leu129); source: bought: Biolegend (produced in human HEK-293 cells), then digested with MMP-9
T2 sequence (looked up): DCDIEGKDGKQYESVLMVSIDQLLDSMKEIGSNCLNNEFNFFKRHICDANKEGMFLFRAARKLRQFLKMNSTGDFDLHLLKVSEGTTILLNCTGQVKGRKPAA
Nature of the experiment: non-reducing SDS-PAGE; IL-7 digested with MMP-9, electrophoresis with SDS and without reducing agent, compared with reducing conditions. The following applies: both partners purified.

In experiment [3] the target is T3, N-terminal fragment of MMP-9-cleaved human IL-7 produced in E. coli (IL-7*) (human, UniProt P13232 26-128).
T3 construct: Interleukin-7, human, N-terminal fragment up to Ala128 (MMP-9 cleavage between Ala128 and Leu129); source: bought: Peprotech (produced in E. coli), then digested with MMP-9
T3 sequence (looked up): T2 sequence (looked up)
The description is as above. The conditions noted are these: both partners purified.

For experiment [4], the target named is T4, N-terminal fragment of MMP-9-cleaved His-tagged human IL-7 produced in insect cells (IL-7*) (human, UniProt P13232 26-128, N-linked glycosylation (partially glycosylated; sites shown in Figure 1D)).
T4 construct: Interleukin-7, human, N-terminal fragment up to Ala128 (MMP-9 cleavage between Ala128 and Leu129); also called N-terminal fragment of IL-7; source: bought: Novus (produced in insect cells), then digested with MMP-9
T4 sequence (looked up): T2 sequence (looked up)
Nature of the experiment: pull-down; His-tagged IL-7 (C-terminal tag) digested with MMP-9, histidine tag pull-down with Ni-NTA magnetic microbeads under native conditions; bound and non-bound proteins resolved by reducing SDS-PAGE. The following applies: both partners purified.

From publication PMC8278288 (Frontiers in Immunology, 2021) come the findings set out here.

Broadly, the Kd is the constant that tells how readily two partners part at equilibrium. A high value points to lower affinity.

B1: MMP-9-cleaved recombinant human IL-7 produced in E. coli (cIL-7) (complex)
chain 1: T2 sequence (looked up)
chain 2: LGEAQPTKSLEENKSLKEQKKLNDLCFLKRLLQEIKTCWNKILMGTKEH
For B1, in experiment [1], the equilibrium dissociation constant (Kd) turned out to be 64 nM.

B2: C-terminal fragment of MMP-9-cleaved human IL-7 produced in HEK-293 cells (IL-7**) (domain or fragment, UniProt P13232 129-177, looked up)
chain: B1 chain 2
notes: Interleukin-7, human, C-terminal fragment from Leu129 (neo-N-terminus LGEAQ); source: bought: Biolegend (produced in human HEK-293 cells), then digested with MMP-9
As to B2, the binding result in experiment [2] was “binds”.

B3: C-terminal fragment of MMP-9-cleaved human IL-7 produced in E. coli (IL-7**) (domain or fragment, UniProt P13232 129-177, looked up)
chain: B1 chain 2
notes: Interleukin-7, human, C-terminal fragment from Leu129 (neo-N-terminus LGEAQ); source: bought: Peprotech (produced in E. coli), then digested with MMP-9
Consider B3, for which the binding result in experiment [3] was “binds”.

B4: C-terminal fragment of MMP-9-cleaved His-tagged human IL-7 produced in insect cells (IL-7**) (domain or fragment, UniProt P13232 129-177, looked up)
chain: B1 chain 2
notes: Interleukin-7, human, C-terminal fragment from Leu129 (neo-N-terminus LGEAQ); Held on nickel beads by the C-terminal His tag; source: bought: Novus (produced in insect cells), then digested with MMP-9; not shown: His tag, C-terminal, kept
As for B4, the binding result in experiment [4] is “binds”.

B5: MMP-9-cleaved recombinant human IL-7 produced in human HEK-293 cells (cIL-7) (complex)
chain 1: T2 sequence (looked up)
chain 2: B1 chain 2
modifications: N-linked oligosaccharides (sites shown in Figure 1D)
For B5, in experiment [1], the Kd is 290 nM.
